According to US20240294593A1 (Genentech, published 2024):

Legend:
human PD-1-His [1] = molecular target: T1, human PD-1-His (human, UniProt Q15116 25-167, limits assumed); assay: Octet (BLI), AHC capture of the bivalent mAb, PD-1 in solution
T1 construct: Antigen of the Octet assays; not shown: His tag

human PD-1-His [2] = molecular target: T1, human PD-1-His; assay: Octet (BLI), AHC biosensors capture the bivalent mAb, dipped into multiple concentrations of PD-1; KDapp per legend

T1 sequence (Q15116 25-167 limits assumed): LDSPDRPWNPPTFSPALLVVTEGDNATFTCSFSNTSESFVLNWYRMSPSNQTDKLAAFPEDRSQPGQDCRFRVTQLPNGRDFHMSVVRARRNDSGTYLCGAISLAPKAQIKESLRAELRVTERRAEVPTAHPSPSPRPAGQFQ

| Binder | koff (human PD-1-His [1]) | kon (human PD-1-His [1]) | Kd (human PD-1-His [2]) |
| --- | --- | --- | --- |
| H1.204_L1.1 (XENP32820) (antibody, human IgG1, kappa, V domains shown, VH substitution R109Q/L110Q/W112F/S113A (Xencor #); R97Q/L98Q/W100F/S100aA (Kabat); also called mAb C[PD1]_H1.204_L1.1_IgG1_PVA_/S267K) VH: EVQLVESGGGLVQPGGSLRLSCAASGFTFSSFGMHWVRQAPGKGLEWVSYISSGSSIIYYADSVKGRFTISRDNAKNSLYLQMNSLRAEDTAVYYCARGGQQVFAPDYWGQGTLVTVSS VL: DIVMTQSPDSLAVSLGERATINCKSSQSLLHSGNQKNYLTWYQQKPGQPPKLLIYWASTRESGVPDRFTGSGSGTDFTLTISSLQAEDVAVYYCQNDYSYPFTFGSGTKLEIKR | 0.00404 s⁻¹ | 154000 M⁻¹ s⁻¹ | 26.2 nM |
| H1.202_L1.1 (XENP32818) (antibody, human IgG1, kappa, V domains shown, VH substitution V111Q/W112F/S113T (Xencor #); V99Q/W100F/S100aT (Kabat); also called mAb C[PD1]_H1.202_L1.1_IgG1_PVA_/S267K) VH: EVQLVESGGGLVQPGGSLRLSCAASGFTFSSFGMHWVRQAPGKGLEWVSYISSGSSIIYYADSVKGRFTISRDNAKNSLYLQMNSLRAEDTAVYYCARGGRLQFTPDYWGQGTLVTVSS VL: DIVMTQSPDSLAVSLGERATINCKSSQSLLHSGNQKNYLTWYQQKPGQPPKLLIYWASTRESGVPDRFTGSGSGTDFTLTISSLQAEDVAVYYCQNDYSYPFTFGSGTKLEIKR | 0.00239 s⁻¹ | 104000 M⁻¹ s⁻¹ | 23 nM |
| H1.200_L1.1 (XENP32816) (antibody, human IgG1, kappa, V domains shown, VH substitution G108H/L110V/W112F (Xencor #); G96H/L98V/W100F (Kabat); also called mAb C[PD1]_H1.200_L1.1_IgG1_PVA_/S267K) VH: EVQLVESGGGLVQPGGSLRLSCAASGFTFSSFGMHWVRQAPGKGLEWVSYISSGSSIIYYADSVKGRFTISRDNAKNSLYLQMNSLRAEDTAVYYCARGHRVVFSPDYWGQGTLVTVSS VL: DIVMTQSPDSLAVSLGERATINCKSSQSLLHSGNQKNYLTWYQQKPGQPPKLLIYWASTRESGVPDRFTGSGSGTDFTLTISSLQAEDVAVYYCQNDYSYPFTFGSGTKLEIKR | 0.00672 s⁻¹ | 336000 M⁻¹ s⁻¹ | 20 nM |
| H1.198_L1.1 (XENP32814) (antibody, human IgG1, kappa, V domains shown, VH substitution W112F/S113N (Xencor #); W100F/S100aN (Kabat); also called mAb C[PD1]_H1.198_L1.1_IgG1_PVA_/S267K) VH: EVQLVESGGGLVQPGGSLRLSCAASGFTFSSFGMHWVRQAPGKGLEWVSYISSGSSIIYYADSVKGRFTISRDNAKNSLYLQMNSLRAEDTAVYYCARGGRLVFNPDYWGQGTLVTVSS VL: DIVMTQSPDSLAVSLGERATINCKSSQSLLHSGNQKNYLTWYQQKPGQPPKLLIYWASTRESGVPDRFTGSGSGTDFTLTISSLQAEDVAVYYCQNDYSYPFTFGSGTKLEIKR | 0.00142 s⁻¹ | 78000 M⁻¹ s⁻¹ | 18.2 nM |
| H1.194_L1.1 (XENP32810) (antibody, human IgG1, kappa, V domains shown, VH substitution R109Q/W112F (Xencor #); R97Q/W100F (Kabat); also called mAb C[PD1]_H1.194_L1.1_IgG1_PVA_/S267K) VH: EVQLVESGGGLVQPGGSLRLSCAASGFTFSSFGMHWVRQAPGKGLEWVSYISSGSSIIYYADSVKGRFTISRDNAKNSLYLQMNSLRAEDTAVYYCARGGQLVFSPDYWGQGTLVTVSS VL: DIVMTQSPDSLAVSLGERATINCKSSQSLLHSGNQKNYLTWYQQKPGQPPKLLIYWASTRESGVPDRFTGSGSGTDFTLTISSLQAEDVAVYYCQNDYSYPFTFGSGTKLEIKR | 0.00395 s⁻¹ | 166000 M⁻¹ s⁻¹ | 23.7 nM |
| H1.207_L1.1 (XENP32823) (antibody, human IgG1, kappa, V domains shown, VH substitution W112F/S113T (Xencor #); W100F/S100aT (Kabat); also called mAb C[PD1]_H1.207_L1.1_IgG1_PVA_/S267K) VH: EVQLVESGGGLVQPGGSLRLSCAASGFTFSSFGMHWVRQAPGKGLEWVSYISSGSSIIYYADSVKGRFTISRDNAKNSLYLQMNSLRAEDTAVYYCARGGRLVFTPDYWGQGTLVTVSS VL: DIVMTQSPDSLAVSLGERATINCKSSQSLLHSGNQKNYLTWYQQKPGQPPKLLIYWASTRESGVPDRFTGSGSGTDFTLTISSLQAEDVAVYYCQNDYSYPFTFGSGTKLEIKR | 0.00151 s⁻¹ | 73600 M⁻¹ s⁻¹ | 20.5 nM |

Second part, the binder after the results:

| koff (human PD-1-His [1]) | kon (human PD-1-His [1]) | Kd (human PD-1-His [2]) | Binder |
| --- | --- | --- | --- |
| 0.00244 s⁻¹ | 154000 M⁻¹ s⁻¹ | 15.9 nM | H1.210_L1.1 (XENP32826) (antibody, human IgG1, kappa, V domains shown, VH substitution R109W/L110H/W112F (Xencor #); R97W/L98H/W100F (Kabat); also called mAb C[PD1]_H1.210_L1.1_IgG1_PVA_/S267K) VH: EVQLVESGGGLVQPGGSLRLSCAASGFTFSSFGMHWVRQAPGKGLEWVSYISSGSSIIYYADSVKGRFTISRDNAKNSLYLQMNSLRAEDTAVYYCARGGWHVFSPDYWGQGTLVTVSS VL: DIVMTQSPDSLAVSLGERATINCKSSQSLLHSGNQKNYLTWYQQKPGQPPKLLIYWASTRESGVPDRFTGSGSGTDFTLTISSLQAEDVAVYYCQNDYSYPFTFGSGTKLEIKR |
| 0.00489 s⁻¹ | 173000 M⁻¹ s⁻¹ | 28.2 nM | H1.209_L1.1 (XENP32825) (antibody, human IgG1, kappa, V domains shown, VH substitution L110F/W112F (Xencor #); L98F/W100F (Kabat); also called mAb C[PD1]_H1.209_L1.1_IgG1_PVA_/S267K) VH: EVQLVESGGGLVQPGGSLRLSCAASGFTFSSFGMHWVRQAPGKGLEWVSYISSGSSIIYYADSVKGRFTISRDNAKNSLYLQMNSLRAEDTAVYYCARGGRFVFSPDYWGQGTLVTVSS VL: DIVMTQSPDSLAVSLGERATINCKSSQSLLHSGNQKNYLTWYQQKPGQPPKLLIYWASTRESGVPDRFTGSGSGTDFTLTISSLQAEDVAVYYCQNDYSYPFTFGSGTKLEIKR |
| 0.00296 s⁻¹ | 111000 M⁻¹ s⁻¹ | 26.8 nM | H1.205_L1.1 (XENP32821) (antibody, human IgG1, kappa, V domains shown, VH substitution R109K/W112F/S113A (Xencor #); R97K/W100F/S100aA (Kabat); also called mAb C[PD1]_H1.205_L1.1_IgG1_PVA_/S267K) VH: EVQLVESGGGLVQPGGSLRLSCAASGFTFSSFGMHWVRQAPGKGLEWVSYISSGSSIIYYADSVKGRFTISRDNAKNSLYLQMNSLRAEDTAVYYCARGGKLVFAPDYWGQGTLVTVSS VL: DIVMTQSPDSLAVSLGERATINCKSSQSLLHSGNQKNYLTWYQQKPGQPPKLLIYWASTRESGVPDRFTGSGSGTDFTLTISSLQAEDVAVYYCQNDYSYPFTFGSGTKLEIKR |
| 0.00252 s⁻¹ | 133000 M⁻¹ s⁻¹ | 19 nM | H1.211_L1.1 (XENP32827) (antibody, human IgG1, kappa, V domains shown, VH substitution W112F/S113A (Xencor #); W100F/S100aA (Kabat); also called mAb C[PD1]_H1.211_L1.1_IgG1_PVA_/S267K) VH: EVQLVESGGGLVQPGGSLRLSCAASGFTFSSFGMHWVRQAPGKGLEWVSYISSGSSIIYYADSVKGRFTISRDNAKNSLYLQMNSLRAEDTAVYYCARGGRLVFAPDYWGQGTLVTVSS VL: DIVMTQSPDSLAVSLGERATINCKSSQSLLHSGNQKNYLTWYQQKPGQPPKLLIYWASTRESGVPDRFTGSGSGTDFTLTISSLQAEDVAVYYCQNDYSYPFTFGSGTKLEIKR |
